Measurements as given in patent US20200352914A1, “METHODS OF TREATING HYPERTENSION WITH ACTIVATORS OF TIE-2” (Aerpio Pharmaceuticals, Inc., priority 2019, published 2020).
Blank lines part the entries; values can stand above or below the molecule they belong to.

What was measured:
eNOS = eNOS and Akt phosphorylation in human endothelial cells (immunoprecipitation, immunoblotting); assay type: cell-based
Procedure: Confluent monolayers of human endothelial cells expressing FLAG-tagged eNOS cultured overnight in MCDB131 containing 0.1% BSA and then incubated with increasing concentrations of Compound 2 (0.3-30 μmol/L) or solvent (DMSO) for 30 minutes. In separate experiments, human endothelial cells were cultured overnight in MCDB131 containing 0.1% BSA and then incubated treated with Compound 2 (30 μmol/L) or solvent for 30 minutes and then stimulated with Yoda1 (1 μmol/L) or solvent for an additional 30 minutes. To inhibit Src, cells were pre-incubated with PP2 (1 μmol/L) for 30 min before incubation with Compound 2 and stimulation with Yoda1. After two washes with cold PBS, cells were collected with the aid of cell scrapers in a lysis buffer containing Tris/HCl pH 7.5 (50 mmol/L), NaCl (150 mmol/L), Triton X-100 (1%), NaPPi (10 mmol/L), NaF (20 mmol/L), orthovanadate (2 mmol/L), okadaic acid (10 nmol/L), β-glycerophosphate (50 mmol/L), phenylmethylsulfonyl fluoride (230 μmol/L), and EDTA-free protease inhibitors mix. The cell mixture was incubated for 30 minutes at 4° C. with vortexing, followed by centrifugation at 13000 rpm for 10 minutes at 4° C. To assess the eNOS-VE-PTP interaction, the following modifications were applied: 1) cells were incubated with the lysis buffer for one hour on an end-over-end rocker at 4° C. and gently vortexed until no cell clumps were observed; 2) lysates were not centrifuged after lysis. FLAG-tagged eNOS was immunoprecipitated using 30 μL of packed Anti-FLAG M2 Affinity Gel per mg protein lysate overnight. The recovered immunoprecipitates were washed three times with the lysis buffer, eluted by boiling samples for 10 minutes in SDS sample buffer, and then analyzed by SDS-PAGE and immunoblotting.
Protein samples were separated by SDS-PAGE and then transferred to […] nitrocellulose membranes. Membranes were incubated overnight with primary antibodies against phospho-Tyr81 eNOS, phospho-Ser1177 eNOS, phospho-Ser633 eNOS, eNOS, phospho-Ser473 Akt, Akt, ABL1, VE-PTP, GAPDH, β-actin, followed by species-specific secondary antibodies anti-IgG conjugated with HRP. Proteins were visualized by enhanced chemiluminescence.

HPTPβ = HPTPβ (Homo sapiens, UniProt P23467); test: HPTPβ inhibitory activity (IC50); assay type: biochemical
subjects with DME = test: Sitting systolic blood pressure and pulse rate in subjects with DME, Compound 1 with or without ranibizumab (Example 9, TABLE 27); assay type: in vivo, human
Procedure: A total of 144 subjects with DME were split into 3 treatment groups. Group 1 received a subcutaneous injection of Compound 1 (15 mg) and a sham intravitreal injection. Group 2 received a subcutaneous injection of Compound 1 (15 mg) and an intravitreal injection of ranibizumab (0.3 mg). Group 3 received a subcutaneous injection of a placebo, and an intravitreal injection of ranibizumab (0.3 mg).
FIG. 19 and TABLE 27 show the effect of Compound 1 treatment, both alone and in combination with ranibizumab, on the sitting systolic blood pressure of subjects.
FIG. 20 compares the effects of Compound 1 treatment, alone (Group 1), or in combination with ranibizumab (Group 2), on subjects with a baseline sitting systolic blood pressure of 140 mmHg or greater, versus those with a baseline sitting systolic blood pressure of less than 140 mmHg. […] The correlation between baseline sitting systolic blood pressure and the change in blood pressure from baseline seen 30 and 90 minutes following specified treatments is shown in FIG. 21 and FIG. 22, respectively.

Tie-2 = Tie-2 phosphorylation in hypoxic HUVECs; assay type: cell-based, human; conditions: HUVECs hypoxic 16 h; ANG-1 alone 500 ng/mL
Procedure: HUVECs cultured under hypoxic conditions for 16 hours were treated with 5 μM Compound 1 for 10 minutes in the presence or absence of ANG-1 or ANG-2 (500 ng/mL). Untreated cells served as controls. The cells were then lysed and Tie-2 was immunoprecipitated and probed with anti-phosphotyrosine (p-Tyr) to indicate Tie-2 activation, or anti-Tie-2 as a loading control.

[1] = subjects with DME, Compound 1 15 mg subcutaneous, ranibizumab 0.3 mg intravitreal, 30 minutes post-dose
[2] = subjects with DME, Compound 1 15 mg subcutaneous, ranibizumab 0.3 mg intravitreal, 90 minutes post-dose

Chain of HPTPβ (P23467 23-1997): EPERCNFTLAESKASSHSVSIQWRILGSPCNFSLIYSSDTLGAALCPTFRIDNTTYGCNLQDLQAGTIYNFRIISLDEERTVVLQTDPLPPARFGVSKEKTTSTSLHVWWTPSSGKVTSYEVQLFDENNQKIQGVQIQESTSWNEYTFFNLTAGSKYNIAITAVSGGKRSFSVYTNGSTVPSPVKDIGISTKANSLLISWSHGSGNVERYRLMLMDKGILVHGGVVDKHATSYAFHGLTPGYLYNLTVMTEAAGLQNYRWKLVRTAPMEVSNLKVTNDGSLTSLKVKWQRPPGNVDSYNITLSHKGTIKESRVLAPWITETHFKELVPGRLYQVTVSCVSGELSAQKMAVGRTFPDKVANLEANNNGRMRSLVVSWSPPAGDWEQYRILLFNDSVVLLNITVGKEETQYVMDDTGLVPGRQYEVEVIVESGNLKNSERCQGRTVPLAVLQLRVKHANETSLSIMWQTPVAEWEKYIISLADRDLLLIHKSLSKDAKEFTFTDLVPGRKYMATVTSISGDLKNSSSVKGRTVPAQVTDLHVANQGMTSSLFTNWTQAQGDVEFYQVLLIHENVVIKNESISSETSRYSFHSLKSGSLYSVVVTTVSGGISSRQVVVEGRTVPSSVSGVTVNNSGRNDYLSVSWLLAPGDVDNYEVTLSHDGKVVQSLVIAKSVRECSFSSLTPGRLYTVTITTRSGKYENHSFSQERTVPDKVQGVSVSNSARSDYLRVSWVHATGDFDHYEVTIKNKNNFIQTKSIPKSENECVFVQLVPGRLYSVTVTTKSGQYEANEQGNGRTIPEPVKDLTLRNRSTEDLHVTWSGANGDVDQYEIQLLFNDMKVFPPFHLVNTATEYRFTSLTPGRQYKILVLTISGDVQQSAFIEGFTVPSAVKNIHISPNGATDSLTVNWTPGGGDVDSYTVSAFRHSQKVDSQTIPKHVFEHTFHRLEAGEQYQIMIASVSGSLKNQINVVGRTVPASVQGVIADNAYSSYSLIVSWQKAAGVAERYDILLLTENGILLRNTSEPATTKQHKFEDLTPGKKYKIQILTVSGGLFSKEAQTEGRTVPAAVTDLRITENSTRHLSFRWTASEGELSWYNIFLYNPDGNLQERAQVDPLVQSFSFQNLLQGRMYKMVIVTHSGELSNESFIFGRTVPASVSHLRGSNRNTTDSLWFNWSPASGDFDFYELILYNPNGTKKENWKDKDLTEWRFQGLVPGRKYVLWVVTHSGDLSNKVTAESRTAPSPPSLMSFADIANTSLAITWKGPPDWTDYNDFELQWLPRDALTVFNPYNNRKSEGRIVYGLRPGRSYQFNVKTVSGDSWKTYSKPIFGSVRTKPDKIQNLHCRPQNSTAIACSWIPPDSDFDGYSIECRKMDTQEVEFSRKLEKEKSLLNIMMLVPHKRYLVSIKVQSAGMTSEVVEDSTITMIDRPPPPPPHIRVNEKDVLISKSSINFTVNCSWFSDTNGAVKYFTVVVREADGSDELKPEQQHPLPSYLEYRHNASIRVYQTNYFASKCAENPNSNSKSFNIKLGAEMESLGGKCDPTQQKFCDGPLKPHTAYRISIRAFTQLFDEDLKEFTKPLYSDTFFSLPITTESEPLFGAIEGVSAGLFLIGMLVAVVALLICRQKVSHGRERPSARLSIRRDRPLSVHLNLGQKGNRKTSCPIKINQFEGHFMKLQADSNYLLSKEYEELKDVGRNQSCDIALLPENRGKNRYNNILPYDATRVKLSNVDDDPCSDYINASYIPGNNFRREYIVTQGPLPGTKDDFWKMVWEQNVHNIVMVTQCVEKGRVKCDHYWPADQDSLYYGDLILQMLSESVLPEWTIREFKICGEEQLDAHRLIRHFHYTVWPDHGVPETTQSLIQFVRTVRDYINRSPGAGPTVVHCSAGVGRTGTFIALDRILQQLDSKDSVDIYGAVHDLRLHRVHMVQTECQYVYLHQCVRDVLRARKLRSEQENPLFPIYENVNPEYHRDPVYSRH

Molecule: Clc1cccc(Cl)c1CSc1nnc(-c2cnccn2)s1 [Yoda1, reference compound]
phosphorylation of Akt and eNOS (eNOS; Yoda1 1 μmol/L, 30 min): elicited the phosphorylation of Akt on Ser473, and phosphorylation of eNOS on Ser1177 and Ser633

IC50 (HPTPβ): < 0.002 nM
Molecule: COC(=O)N[C@@H](Cc1ccccc1)C(=O)N[C@@H](Cc1ccc(NS(=O)(=O)O)cc1)c1nc(-c2ccccc2)cs1 [AA21]

Molecule: CC(C)(C)n1nc(-c2ccc(Cl)cc2)c2c(N)ncnc21 [PP2, reference compound]
basal and Yoda1-induced tyrosine phosphorylation of eNOS (eNOS; PP2 1 μmol/L pre-incubation): significantly reduced

IC50 (HPTPβ): 40 nM
Molecule: CCCc1nc([C@H](Cc2ccc(NS(=O)(=O)O)cc2)NC(=O)OC(C)(C)C)cs1 [AA65]

B1: ranibizumab (antibody, chains of the INN, looked up, V domains shown)
VH: EVQLVESGGGLVQPGGSLRLSCAASGYDFTHYGMNWVRQAPGKGLEWVGWINTYTGEPTYAADFKRRFTFSLDTSKSTAYLQMNSLRAEDTAVYYCAKYPYYYGTSHWYFDVWGQGTLVTVSS
VL: DIQLTQSPSSLSASVGDRVTITCSASQDISNYLNWYQQKPGKAPKVLIYFTSSLHSGVPSRFSGSGSGTDFTLTISSLQPEDFATYYCQQYSTVPWTFGQGTKVEIK
modifications: Fab
blood pressure change (subjects with DME; baseline sitting SBP 140 mmHg or greater, ranibizumab alone (Group 3)): Minimal change in blood pressure
decrease in sitting systolic blood pressure compared to baseline (subjects with DME; ranibizumab 0.3 mg intravitreal alone (Group 3), 30 and 90 minutes post-dose): not seen

B2: Placebo + Ranibizumab (antibody, chains of the INN, looked up, V domains shown)
VH: EVQLVESGGGLVQPGGSLRLSCAASGYDFTHYGMNWVRQAPGKGLEWVGWINTYTGEPTYAADFKRRFTFSLDTSKSTAYLQMNSLRAEDTAVYYCAKYPYYYGTSHWYFDVWGQGTLVTVSS
VL: DIQLTQSPSSLSASVGDRVTITCSASQDISNYLNWYQQKPGKAPKVLIYFTSSLHSGVPSRFSGSGSGTDFTLTISSLQPEDFATYYCQQYSTVPWTFGQGTKVEIK
modifications: Fab with placebo
Sitting systolic blood pressure, Change from pre-dose to 30 minutes post-dose, Max (subjects with DME; [1]): 31 mmHg
Sitting systolic blood pressure, Change from pre-dose to 30 minutes post-dose, Mean (SD) (subjects with DME; [1]): 2.2 (14.32) mmHg
Sitting systolic blood pressure, Change from pre-dose to 30 minutes post-dose, Median (subjects with DME; [1]): 1.0 mmHg
Sitting systolic blood pressure, Change from pre-dose to 30 minutes post-dose, Min (subjects with DME; [1]): −37 mmHg
Sitting systolic blood pressure, Change from pre-dose to 90 minutes post-dose, Max (subjects with DME; [2]): 35 mmHg
Sitting systolic blood pressure, Change from pre-dose to 90 minutes post-dose, Mean (SD) (subjects with DME; [2]): −0.1 (14.46) mmHg
Sitting systolic blood pressure, Change from pre-dose to 90 minutes post-dose, Median (subjects with DME; [2]): 2.0 mmHg
Sitting systolic blood pressure, Change from pre-dose to 90 minutes post-dose, Min (subjects with DME; [2]): −30 mmHg

B3: ANG-1: angiopoietin 1, an agonist of Tie-2 (protein, UniProt Q15389 16-498, looked up)
Angiopoietin-1: HIGCSNQRRSPENSGRRYNRIQHGQCAYTFILPEHDGNCRESTTDQYNTNALQRDAPHVEPDFSSQKLQHLEHVMENYTQWLQKLENYIVENMKSEMAQIQQNAVQNHTATMLEIGTSLLSQTAEQTRKLTDVETQVLNQTSRLEIQLLENSLSTYKLEKQLLQQTNEILKIHEKNSLLEHKILEMEGKHKEELDTLKEEKENLQGLVTRQTYIIQELEKQLNRATTNNSVLQKQQLELMDTVHNLVNLCTKEGVLLKGGKREEEKPFRDCADVYQAGFNKSGIYTIYINNMPEPKKVFCNMDVNGGGWTVIQHREDGSLDFQRGWKEYKMGFGNPSGEYWLGNEFIFAITSQRQYMLRIELMDWEGNRAYSQYDRFHIGNEKQNYRLYLKGHTGTAGKQSSLILHGADFSTKDADNDNCMCKCALMLTGGWWFDACGPSNLNGMFYTAGQNHGKLNGIKWHYFKGPSYSLRSTTMMIRPLDF
Tie-2 phosphorylation (p-Tyr) (Tie-2): did not increase Tie-2 phosphorylation
